Here are results for 78 sequences from the supplement of paper PMC10126150.

± gives the standard deviation of the averaged measurements.
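Note: ATP exposure 15 min at 22 °C before imaging.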

For the series, the system named is ATP. As to the kind of experiment: switch fluorescence ratio, 500 uM ATP over buffer (Cy3 cluster intensity, sum of 5 cycles each) (fold (ratio)); higher = stronger signal-on switching upon ATP binding; sequences stand for … in TCGTCGGCAGCGTCAGATGTGTATAAGAGACAGTTTTTTTTTTTTTTTTTTTTTTTTT…TC. Conditions: aptamer strand: ATP DNA aptamer (quencher-CACCTGGGGGAGTATTGCGGAGGAAGG + anchor), 100 nM annealed; ATP concentration: 500 uM. Put shortly:
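Between each of five buffer/ATP cycles, the flow-cell was stripped with NaOH and re-annealed. Each cycle imaged Cy3-labelled switching-strand clusters, annealed to 100 nM quencher-labelled ATP aptamer on a modified Illumina MiSeq flow-cell, first in selection buffer and then after 15 min with 500 uM ATP at 22 °C. The fluorescence ratio is summed target-cycle over summed buffer-cycle Cy3 intensity per cluster, averaged per switch-domain sequence, with clusters outside 100-1000 RFU excluded.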
Consider GCGGCGGAGG, for which the switch fluorescence ratio is 0.995 ± 0.032.

For the sequence TTTTACCAG, the switch fluorescence ratio came out at 1.02 ± 0.051.

For the sequence CTTTGTAGT, the switch fluorescence ratio worked out at 1.013 ± 0.01.

In the case of GGTTGGTATT, the switch fluorescence ratio was found to be 1.001 ± 0.0099.

For TGTGGTACCA, the switch fluorescence ratio came to 1.01 ± 0.023.

As to GTTATTGTGT, the switch fluorescence ratio came to 0.999 ± 0.028.

With GTGTTCGACG, the switch fluorescence ratio was 0.995 ± 0.056.

Regarding ATGGGACGGT, the switch fluorescence ratio stood at 1.03 ± 0.036.

As for ATGGTATCGG, the switch fluorescence ratio came to 1.026 ± 0.0074.

On to TAAGCTGTGG, for which the switch fluorescence ratio amounted to 1.02 ± 0.028.

Take AGCTGTTTCA: the switch fluorescence ratio came to 0.973 ± 0.02.

Consider CGAGTAACGC, for which the switch fluorescence ratio was determined as 1.03 ± 0.015.

As to CGAGAAGAGA, the switch fluorescence ratio was 1.01 ± 0.013.

CGTTACGGGA: the switch fluorescence ratio came out at 1.02 ± 0.057.

On to GTTTGAATAT, for which the switch fluorescence ratio was found to be 0.984 ± 0.047.

TTACCCCGAA: the switch fluorescence ratio was 1.026 ± 0.0067.

In the case of ACTTGGCAAT, the switch fluorescence ratio came out at 4.347 ± 0.014.

Consider GGGCGTTTGA, for which the switch fluorescence ratio turned out to be 1 ± 0.046.

Regarding CTTGCGGGGC, the switch fluorescence ratio is 1.03 ± 0.051.

With ACAAAGGGAC, the switch fluorescence ratio was 1.06 ± 0.12.

GGTGTTGTGG: the switch fluorescence ratio worked out at 0.9911 ± 0.0093.

TAGTGCGCGC: the switch fluorescence ratio was 1.03 ± 0.025.

As for ATAACGTTCG, the switch fluorescence ratio turned out to be 1.06 ± 0.052.

Take CTGTGCAACT: the switch fluorescence ratio stood at 1.0489 ± 0.00058.

Take AGTGAGGTGC: the switch fluorescence ratio came to 1.02 ± 0.01.

Consider TTTGAACGGG, for which the switch fluorescence ratio was 1.01 ± 0.036.

As for TTGAGTTACT, the switch fluorescence ratio was determined as 0.981 ± 0.063.

For GATAGTTCGT, the switch fluorescence ratio stood at 1.01 ± 0.021.

Take TCCTTAAAAA: the switch fluorescence ratio was 1.1 ± 0.06.

On to TTTATACCAA, for which the switch fluorescence ratio amounted to 1.038 ± 0.0089.

As for AAGGGAGGAC, the switch fluorescence ratio is 0.9939 ± 0.002.

Regarding GAAAAAGGTT, the switch fluorescence ratio turned out to be 0.969 ± 0.011.

For the sequence TAAATGGAA, the switch fluorescence ratio is 1 ± 0.024.

Turning to TTTAAGGTTA, the switch fluorescence ratio was 0.999 ± 0.025.

As for AACATTTTTT, the switch fluorescence ratio was found to be 0.99 ± 0.019.

With GTGGGGGCTT, the switch fluorescence ratio turned out to be 0.947 ± 0.021.

As for CAGGCATAGG, the switch fluorescence ratio amounted to 1.06 ± 0.033.

As to ATAGGGCCTT, the switch fluorescence ratio is 1.02 ± 0.05.

On to GCCTGTTTGG, for which the switch fluorescence ratio worked out at 1.014 ± 0.01.

Turning to GGGGCTTGAC, the switch fluorescence ratio is 1.01 ± 0.022.

Turning to GTGAAAAAGA, the switch fluorescence ratio turned out to be 1.005 ± 0.0075.

For CGGGGGTGTC, the switch fluorescence ratio worked out at 0.998 ± 0.026.

As to GGAGGGGCGG, the switch fluorescence ratio was determined as 1.01 ± 0.043.

CCGAGAAAAA: the switch fluorescence ratio was determined as 1.12 ± 0.14.

In the case of GTCGAGGGGC, the switch fluorescence ratio came out at 0.968 ± 0.049.

On to TTTGTGATCA, for which the switch fluorescence ratio worked out at 0.998 ± 0.032.

ATTATTATTG: the switch fluorescence ratio stood at 0.981 ± 0.041.

Regarding AGTGATTTCG, the switch fluorescence ratio came to 1.01 ± 0.043.

Regarding GTTTTTAGT, the switch fluorescence ratio turned out to be 1.006 ± 0.0027.

For CTAGGGGTAT, the switch fluorescence ratio worked out at 1.03 ± 0.14.

With TAAGGTTTGT, the switch fluorescence ratio was 0.988 ± 0.021.

As to TTCCCCAGTT, the switch fluorescence ratio was 1.03 ± 0.036.

For TTTTATTTGT, the switch fluorescence ratio turned out to be 0.985 ± 0.0089.

In the case of AGACAGGTAA, the switch fluorescence ratio is 1.01 ± 0.02.

In the case of ACTATTCGT, the switch fluorescence ratio worked out at 0.99 ± 0.026.

For the sequence AGATGCCGGA, the switch fluorescence ratio stood at 1 ± 0.027.

As for TACAGTCTGG, the switch fluorescence ratio was 1.007 ± 0.0066.

On to AACTATTGTA, for which the switch fluorescence ratio is 1.01 ± 0.022.

Regarding GGCGCATGTC, the switch fluorescence ratio was 1.14 ± 0.029.

Take TCGGGGGGCA: the switch fluorescence ratio is 0.992 ± 0.028.

As to CGGCGCCTGT, the switch fluorescence ratio stood at 1.01 ± 0.05.

For the sequence GCCACCGTTT, the switch fluorescence ratio is 1.06 ± 0.021.

With AGGTAGAGTG, the switch fluorescence ratio is 0.948 ± 0.038.

In the case of TACTGGCCGG, the switch fluorescence ratio turned out to be 1.03 ± 0.029.

Turning to GCATTAAGGA, the switch fluorescence ratio worked out at 1.058 ± 0.008.

In the case of GTGTTGGGGG, the switch fluorescence ratio is 0.984 ± 0.039.

Consider TTTGGCAGGG, for which the switch fluorescence ratio came to 0.996 ± 0.024.

Turning to GGTTCGGTTC, the switch fluorescence ratio came to 1.02 ± 0.017.

With TGGAGCCCCG, the switch fluorescence ratio stood at 0.999 ± 0.015.

Turning to GGGAGGAAGC, the switch fluorescence ratio is 0.99 ± 0.0049.

Consider CTGGGGATCG, for which the switch fluorescence ratio was 1.02 ± 0.043.

As for GCCTGTACTT, the switch fluorescence ratio is 0.9883 ± 0.0046.

Turning to TTGTTAGAA, the switch fluorescence ratio worked out at 1.0004 ± 0.001.

Take TTTTAAGTGC: the switch fluorescence ratio amounted to 1 ± 0.027.

For GCAGAAGGTA, the switch fluorescence ratio was 1.01 ± 0.029.

For CTAGTTGGTC, the switch fluorescence ratio was 0.981 ± 0.033.

Take GGTTTCTGAA: the switch fluorescence ratio amounted to 0.998 ± 0.02.

Regarding GAGTTTATGG, the switch fluorescence ratio is 0.984 ± 0.029.
